Assay results: patent US20050186593A1 (SALK INSTITUTE FOR BIOLOGICAL STUDIES, published 2005)

Assays:
[1] = target: Xenopus activin receptor xActRIIB, expressed in Xenopus embryos from injected synthetic RNA (Xenopus) (UniProt P27041); test: cell-based or functional assay
[2] = target: T1, Mouse activin receptor, full length (encoded by clone pmActR2), expressed on transfected COS cells (mouse, UniProt P27038 20-513); test: competition with 125I activin A on COS cells transfected with pmActR2
T1 construct: also called mActRII; ActRII
Protocol: (§1) 10⁵ COS cells transfected with either pmActR1 or pmActR2, or 10⁶ untransfected COS cells, were plated in 6 well dishes and allowed to grow overnight. The cells were washed 2× with HDB, 0.1% BSA, and incubated at 22° for 90 minutes in 0.5 ml HDB, 0.1% BSA containing 100,000 cpm (approximately 1 ng, 75 pM) ¹²⁵I activin A (5 μg activin A was iodinated by chloramine T oxidation to a specific activity of 50-90 μCi/μg; iodinated activin A was purified on a 0.7×20 cm G-25 column) and varying amounts of unlabeled competitor hormone. Following binding, the cells were washed 3× with cold HDB, solubilized in 0.5 ml 0.5 N NaOH, removed from the dish and radioactivity was measured in a gamma counter. Data presented in FIG. 5 are expressed as % specific binding, where 100% specific binding is the difference between binding in the absence of competitor and binding in the presence of a 100 fold molar excess of unlabeled activin A. Binding parameters were determined using the program LIGAND [Munson P. J. and Rodbard, D., Anal. Biochem. 107:220-259 (1980)].
This affinity and specificity of binding match those observed following binding of activin A to a number of other activin-responsive cell types. […]

[3] = target: T2, Mouse activin receptor, C-terminally truncated (encoded by clone pmActR1), expressed on transfected COS cells (mouse, UniProt P27038 20-354); test: 125I activin A competition radioreceptor assay on COS cells transfected with pmActR1; Scatchard/LIGAND
T2 construct: pmActR1 codes for a protein of 342 amino acids, the last 17 of them from the vector; It lacks a complete intracellular kinase domain; the real chain is truncated and its signal peptide (1-19) is removed
Protocol: as §1
(§2) To verify that the cloned receptor is activin specific, competition binding experiments were performed on COS cells transiently transfected with either pmActR1 or pmActR2. […] This binding affinity is consistent with that measured on other activin-responsive cell types [see, for example, Campen, C. A. and Vale, W., Biochem. Biophys. Res. Comm. […]

[4] = target: T1, Mouse activin receptor, full length …; test: 125I activin A competition radioreceptor assay on COS cells transfected with pmActR2; LIGAND
Protocol: as §1, §2

T1 sequence (P27038 20-513): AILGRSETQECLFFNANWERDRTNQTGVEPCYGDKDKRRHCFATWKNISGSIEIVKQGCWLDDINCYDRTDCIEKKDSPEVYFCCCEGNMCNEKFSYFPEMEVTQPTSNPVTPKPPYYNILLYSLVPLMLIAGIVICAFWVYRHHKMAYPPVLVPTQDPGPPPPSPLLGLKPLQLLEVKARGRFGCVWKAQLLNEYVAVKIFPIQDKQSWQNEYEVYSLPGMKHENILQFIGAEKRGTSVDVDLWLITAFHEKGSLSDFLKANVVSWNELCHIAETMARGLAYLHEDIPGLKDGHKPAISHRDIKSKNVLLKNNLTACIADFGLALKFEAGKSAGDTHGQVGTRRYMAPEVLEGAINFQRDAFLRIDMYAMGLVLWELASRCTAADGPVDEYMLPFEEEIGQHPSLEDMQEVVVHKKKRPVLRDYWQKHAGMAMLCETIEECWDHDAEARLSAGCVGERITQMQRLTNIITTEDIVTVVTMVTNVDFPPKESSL
Xenopus activin receptor xActRIIB, expressed in Xenopus embryos from injected synthetic RNA (Xenopus), sequence (P27041 other isoform, or with tags, fused parts or gaps): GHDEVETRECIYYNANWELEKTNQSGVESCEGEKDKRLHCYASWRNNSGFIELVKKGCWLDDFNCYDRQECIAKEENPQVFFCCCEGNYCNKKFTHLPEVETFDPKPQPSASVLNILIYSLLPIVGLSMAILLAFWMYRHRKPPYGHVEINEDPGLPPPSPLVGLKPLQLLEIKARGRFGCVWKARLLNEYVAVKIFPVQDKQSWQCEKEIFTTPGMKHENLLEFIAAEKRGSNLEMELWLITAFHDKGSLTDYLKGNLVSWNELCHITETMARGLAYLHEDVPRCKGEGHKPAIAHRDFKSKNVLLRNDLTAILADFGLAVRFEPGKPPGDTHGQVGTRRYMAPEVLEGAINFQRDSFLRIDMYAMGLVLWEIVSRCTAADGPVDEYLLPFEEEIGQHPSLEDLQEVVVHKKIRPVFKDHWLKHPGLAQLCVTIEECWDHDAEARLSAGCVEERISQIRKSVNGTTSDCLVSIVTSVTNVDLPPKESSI
T2 sequence (P27038 20-354 limits assumed, form in doubt): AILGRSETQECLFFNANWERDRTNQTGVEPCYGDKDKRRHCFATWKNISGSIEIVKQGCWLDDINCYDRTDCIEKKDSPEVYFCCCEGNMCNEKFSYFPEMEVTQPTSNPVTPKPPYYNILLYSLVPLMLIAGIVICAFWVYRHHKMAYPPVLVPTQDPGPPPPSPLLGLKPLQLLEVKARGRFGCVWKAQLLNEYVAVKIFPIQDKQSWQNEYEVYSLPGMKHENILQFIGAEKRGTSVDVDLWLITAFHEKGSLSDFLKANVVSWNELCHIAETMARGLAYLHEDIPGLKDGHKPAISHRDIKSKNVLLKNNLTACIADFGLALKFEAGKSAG

Purified porcine activin A (from UniProt P03970 309-424) (ligand)
muscle-specific actin RNA in animal caps (ribonuclease protection assay); sensitivity to activin against control embryos, embryos injected with 0.4 ng xActRIIB RNA [1]: 10 fold
muscle-specific actin RNA in animal caps (ribonuclease protection assay); sensitivity to activin against control embryos, embryos injected with 2.0 ng xActRIIB RNA [1]: 100 fold

B1: Recombinant human (rh) inhibin A (ligand)
chain 1: STPLMSWPWSPSALRLLQRPPEEPAAHANCHRVALNISFQELGWERWIVYPPSFIFHYCHGGCGLHIPPNLSLPVPGAPPTPAQPYSLLPGAQPCCAALPGTMRPLHVRTTSDGGYSFKYETVPNLLTQHCACI
chain 2: GLECDGKVNICCKKQFFVSFKDIGWNDWIIAPSGYHANYCEGECPSHIAGTSGSSLSFHSTVINHYRMRGHSPFANLKSCCVPTKLRPMSMLYYDDGQNIIKKDIQNMIVEECGCS
fold lower potency than activin A in competition [2]: ~10 fold

B2: Recombinant human (rh) activin A (ligand, UniProt P08476 311-426, looked up)
chain: GLECDGKVNICCKKQFFVSFKDIGWNDWIIAPSGYHANYCEGECPSHIAGTSGSSLSFHSTVINHYRMRGHSPFANLKSCCVPTKLRPMSMLYYDDGQNIIKKDIQNMIVEECGCS
notes: also called 125I activin A; iodinated activin A
Kd [3]: 0.18 nM
Kd [4]: 0.18 nM

B3: Recombinant human (rh) activin B (ligand, UniProt P09529 293-407, looked up)
chain: GLECDGRTNLCCRQQFFIDFRLIGWNDWIIAPTGYYGNYCEGSCPAYLAGVPGSASSFHTAVVNQYRMRGLNPGTVNSCCIPTKLSTMSMLYFDDEYNIVKRDVPNMIVEECGCA
binding result [2]: binds
